{
  "source": "the DeepSol protein solubility set",
  "data": [
    {"experiment": "soluble on expression in E. coli; label from the status in PepcDB or PDB records", "values": [
      {"sequence": "MMGLLKRLLRVVRAEAHSVVEKLEDPIKITEEGLRELRKQLKEAMEALAQVKASQIRFEREARNEKERAKALVKKAESLLLQAQEGKISPEEAEKLAAELIQKAELHEKNARRLEEEAKRQREMAVKLQAKIDELKVQIAKYEAELKTLKARLATARAVKKVNKQIAKVDPSDTIAMLERMKEKVEEEETLAQAYEELAKQEVALDVESEAEKKLKEVESKQKLEELKKRLGLSLEHHHHHH", "soluble on expression in E. coli": "not soluble"},
      {"sequence": "MGSDKIHHHHHHMKKVVVGLSGGVDSSTAAAILHNQGYEVIGLTLWLMKGKGQCCSEGMIDAAYICEQLGIPHEVVDMRDVFQTHIVDYLVTGYGAGITPLPCSQCNKTVKFGPMVQYAREQLGCDRIATGHYARISYDEASGRYQLLRAVDRNKDQSYFLYDLSQDLLAASLFPLGEMEKADTRRIATEHGLKTADKPESQDLCLVESNGSMRAFLDKYIAPKKGDIVDTAGKILGQHDGVHHYTIGQRKGLGIAAPEPLYVVELDAVNNKVVVGDRTKATQEECTVSRVNWVSIPEPSTPIRAAVQIRYRSAPEPVTVIPLENSRVRLVFDEPQFSITPGQAAVWYDGDKVLGGGIIEQFSN", "soluble on expression in E. coli": "not soluble"},
      {"sequence": "MLIVGINGSPKKEGNTKYLINTVLEEAKSQGVETMVLEVGELLNSVKNPFCVVCSNPCSSICYKGTKLEEAYEILKKADAIVMGSPVYFGSVSAQLKAFFDKTRKLRSEKALYNKFACGVTVGGARFGGQETTMKALHDIMLVHGMTIVGDGYVGDDCGHHGVCAQQPADKDEFAIKRAKILGRRLVDVCKKAGA", "soluble on expression in E. coli": "not soluble"},
      {"sequence": "MTTDIRPLLVELFTEELPPKALQKLGQAFAEGVRATLARHHLLADGCAVEPFATPRRLAVRLSAVLAQAPEQAYAEKLMPVKVGLDANGQPTAALAKKLAAKGLEGLDPATLERESDGKQEYLVARGTAAGAQLAVGLQEGLDAAIDGLPIPKVMRYQLADGQTTVKFVRPAHGLVALFGADIVPIAALGLQAGRATQGHRFQSNGAIELATAQGYEADLAERGRVIASFEARRAEISRLLDEHAQRLGATLGDDPEVTALLDEVTALVEHPTVYVGQFEEQFLQVPQECLILTMRLNQKYFPLFDPASGKLTHRFLIVSNMQVADPANIVEGNQRVVRPRLADAQFFFETDRKTPLAARVEQLGSIVYHNKLSTQLERVERVRAIARGIATALGGDAAHCDRAALLAKADLGSNMVGEFPELQGIMGAYYAQGDGEPADVVTALRTQYRNRYDAPVDAATLTAATLFIAERIETLVGIWSIGLAPTGERDPFGLRRAALGLISAFEQLAAGGWLKVSEDGPLSLDGLLALAAQAFPDGKIGADTLAEVRAFIYERYRNQLIGEHDRNAVEAVIALAPPL", "soluble on expression in E. coli": "not soluble"},
      {"sequence": "MLSRMRRKHFLSQTEHTFSRQEVSLWKEKQMICFMMNPSRKHIWASREEINMDHVVITIARQYGSGGRTVGKMLAERLGISFYDKQIIHMASDESGIDVNLFGKIEAGDKIKSSLFGNKSSIYKGDLVLPGNKDFISDENLFNYQAKVVNDLAEKESYVIVGRCVNYVFKDRPNTLRVFIHAPWEFRVEQASQKISGSREDVEKFLLKDDKRKQDYYRKFAGGQWSDATNYDLCLNSGKLGFDKCVDAIETQLKIMLGK", "soluble on expression in E. coli": "not soluble"},
      {"sequence": "MAPKDNTWYTGAKLGFSQYHDTGFINNNGPTHENQLGAGAFGGYQVNPYVGFEMGYDFLGRMPYKGSVENGAYKAQGVQLTAKLGYPITDDLDIYTRLGGMVFRADTKSNVYGKNHDTGVSPVFAGGVEYAITPEIATRLEYQFTNNIGDAHTIGTRPDNGMLSLGVSYRFGQGEAA", "soluble on expression in E. coli": "soluble"},
      {"sequence": "VARSSKLLGWCQRQTDGYAGVNVTDLTMSWKSGLALCAIIHRYRPDLIDFDSLDEQNVEKNNQLAFDIAEKELGISPIMTGKEMASVGEPDKLSMVMYLTQFYEMFKD", "soluble on expression in E. coli": "soluble"},
      {"sequence": "MAHHHHHHMSTTQAALFPFRHHWRVPVTLAINTTVPNGAPSATESGGCTQPQSPGEQAAAHAAVTPDGIDAVVTDFVFAQSGRRLLLVRGDSPPDLRLCLSEDSPNGPLSGALGAGIAVEASPLQQAHRALCTGAELIHHVSTLRDQQLEGHRPCDGDTRASALELCVAGYPQGHPLDRTWGATSAAYSAPAEAAATGSVATRDSSVAAARQRSLEFLRAFEEDFDAAEHAFTAAVRVAKRRACVVSAEKRSSDISVDDGTPSAASGEPRERARHLCTPQAVMPELKEPCRTLGRLGAVRRLWTSSSIYAPYVRAACIHRMLHEKVLLRSPSEPEHRRIRSGSFHGGAAAPVIVTQMITTAQGFTGYVDEIQRGLRAWAATAGGGEQPEPAGDGPQQQHPVHAAAPTALTPPISVIPGVLLPHPTDVHVLLRSLYYTKVIPSARMQKALEVYASELMIAWRQLADEPPRRKREPALQDDTFLQALTESNGSAATLEVSEDRVAQVEARVREVRRCASCRLTSVWLSETVDLLHDLQRHGQARLHLFTMFNDKVGVRVAQLLAAYDAPRGASAEQ", "soluble on expression in E. coli": "not soluble"},
      {"sequence": "MAHHHHHHMKVVEKQLSKKTLKVKKETEKNSTGFMEKKKINKKEKKIYKNNYNNDNIKEEEDILLNQDDFEKKKKKSLENKILLSKKLKEIKLQFKDDDTINNSKKNNWIERLDITSTEYYYLKKTELFGISESREKQLQNITHMNVIQALQKLQELNIKFNRPYDFLADMLKSDIHMEKIRQKILKEHEQAEVRENNKLKRINKKFLKKCGSQKIKSHKEALEKKQNLLKIDQLKKTNNLQNLNVQEFFIKHSKDHDYKAGKITAKKDMKHKKKNFNNKAKKDKGIKNKQIGKKTSINNKRKASSKNSRKSKKMKKKHKHRK", "soluble on expression in E. coli": "soluble"},
      {"sequence": "MKYKIIVIDVFNTLLNNKYELTEENRNALLYIQKELGIRVVLTSGRTVAALKPLAEELNLREYSGYLIPYHGGQIVNCRSGKVIASHRMATSFVEVLDARARAEGVTLLAFGKDSIFSTDPHDPLAVKESDICGQPLVSKHPRSSEVIKCSFVGEAEKIAELEVVMRRDYGDKLNIFRSSETLLECLPSE", "soluble on expression in E. coli": "not soluble"},
      {"sequence": "MSLRHLLRSLIGKTLAFFVEREDDNLTRVREHLMDLLDARPSPVRAQNLRSARQLLHKQADVFNRAFQAALQTSMDEEMRAVLPEAPASAVANDTSADPLDGMTLSLIDVCEVERILLVDRVAQRFTAHYDASVSALTQRLGVLLGRDVAALSSNPFRPEVFVRAFLLAWENSGLDKQATEDLMLSLDPLHSIDLTPLYADLNAMLTHAGIAAQPARRVIKSEGAGSSYLPLSPASAHAHLQGGEMRSGLGDLEPERARSAWDALAPAGRSIASHARQFLQRLGLASSSGQNDSGAGEGADWTPADGHETRTYLASADPEFMGYLGDLQAGAQAESAERILPGQHPGDRNVLRQMRDRDEVRRAPELDRGTVDALAEVFDFVFADQAIPVQMKFVIGRLQIPVLKAAMIDRDFFLSADHPARRLVDTLAQASIAWAPEKGESDPLYVRIENTVQRVLTEFEDDLALFSELLAEFTEFLFETEQQAQGRIEPAVDHERVGESFEQALAHADEVIHARIAALPSELPLAPFLAPFLTTQWREVLARAWLNVQASAAPWDSAVTSMDQLIWSTQPKTRIEERRQLVALLPELVRRLNAGLDAIEWVGEPRATFTRRLIATHMMAIRMTQAASVDSMSAALEANAGKEAMNELEQRRSGQLAGSVDDFDAMAQSFTRGLWFDFLLDEHTQHRCLLSWVSPMRTRLLFTNRDGFDAFVRSEREVAALLRHGRLHVIDQQPIVSRALDRIMSEGERKQEGHHHHHH", "soluble on expression in E. coli": "soluble"},
      {"sequence": "MAHHHHHHMSAPTALTVPRRSASDAALADATRRELEEEMGRSDKPEQPTPPAGWQVVRKPGTCTFDLTKSFEGEDLVVRYSTNQDSDKANSHNIFVYITQKNGQTMQADLSIEEGELVLNNIRFYDEAALAKDTGAEAEAKRNELYTGPLVHELDYDLLNCVMTYLEKRGVDEKLGEFVVLYSFWAEQQDYEAWLTTMNKFAS", "soluble on expression in E. coli": "soluble"},
      {"sequence": "MGSDKIHHHHHHMPDFSYAKITKLVVHFAGNKAREEGTEVSANVLQDIGSEMNQTLASIFLEPFTKDDYYQFSHETDLDFNEVRTFAANMFGAEEEFLDESKKILEHLYSETTHPNIKSGDVWIFFIEGCVVDGDFTNGIGIFKVENKEVFLKNDFNGSEFQIGYDKGITGTDLDKGCLIFNVDHDSGNKVLILDRLNRGDSVYWKDKFLSIDKITDEKFYTEGFVEVCTDYIKQREESLLDKSNFVKATSEYLAGEETLNIAEFARTTIEKPEEITEFNTMVDTFERENNVRFPETFQLDEEKREKLSKKIRKTIKLGKNISVVVKDLEQLEETDFVQGYDEEKGKNYMIVYYD", "soluble on expression in E. coli": "not soluble"}
    ]}
  ]
}
